In series [1] the target is Cm-laforin-HIS6 (Cyanidioschyzon merolae). Briefly: SEC; SEX4-HIS6 on Superdex-75 and Cm-laforin-HIS6 on Superdex-200 after Ni-NTA; multiple peaks.
The target in a further series is Hs-laforin-HIS6 (human) (UniProt O95278). Briefly: SEC; Ni-NTA-purified Hs-laforin-HIS6 on HiLoad 16/60 Superdex 75; two peaks, A (dimer) and B (monomer).
Series [2] deals with the molecule itself. Briefly: SEC; SEX4-HIS6 on Superdex-75 and Cm-laforin-HIS6 on Superdex-200 after Ni-NTA; multiple peaks. (In general: In gel filtration, larger molecules generally elute earlier.)

The values that follow come from paper PMC3162602, “Laforin, a Dual Specificity Phosphatase Involved in Lafora Disease, Is Present Mainly as Monomeric Form with Full Phosphatase Activity” (PLoS ONE, 2011).

Regarding Cm-laforin-HIS6 (enzyme), in series [1], the stoichiometry N (usually the number of molecules, sites or subunits per partner or assembly) turned out to be 2. Consider “Hs-laforin-HIS6 (from UniProt O95278 1-331) (enzyme)”, for which the stoichiometry N in the series with Hs-laforin-HIS6 (human) came out at 2.

B1: At-SEX4-HIS6(Δ81) (enzyme, Arabidopsis thaliana, UniProt Q9FEB5 82-379, looked up)
chain: QAMGAVLTYRHELGMNYNFIRPDLIVGSCLQTPEDVDKLRKIGVKTIFCLQQDPDLEYFGVDISSIQAYAKKYSDIQHIRCEIRDFDAFDLRMRLPAVVGTLYKAVKRNGGVTYVHCTAGMGRAPAVALTYMFWVQGYKLMEAHKLLMSKRSCFPKLDAIRNATIDILTGLKRKTVTLTLKDKGFSRVEISGLDIGWGQRIPLTLDKGTGFWILKRELPEGQFEYKYIIDGEWTHNEAEPFIGPNKDGHTNNYAKVVDDPTSVDGTTRERLSSEDPELLEEERSKLIQFLETCSEAEV
notes: SEX4 (Starch EXcess4), Arabidopsis thaliana glucan phosphatase; construct pET21a At-SEX4-HIS6(Δ81), printed as a 32 kDa protein; Δ81 read as lacking the first 81 residues; also called Starch EXcess4; source: bacteria (E. coli), purified (Ni-NTA, Superdex-75)
For the molecule B1, in series [2], the “stoichiometry N” value was 2.
